According to the Human Domainome abundance scans (Beltran et al. 2025):
± gives the uncertainty stated by the source.

B1: Segment polarity protein dishevelled homolog DVL-3, residues 2 to 81; numbered along this chain, Q92997 (parent)
chain: GETKIIYHLDGQETPYLVKLPLPAERVTLADFKGVLQRPSYKFFFKSMDDDFGVVKEEISDDNAKLPCFNGRVVSWLVSA

Variants of: B1
Test: abundance fitness (aPCA) (normalised: wild type 0, dead -1); higher = more abundant; growth selection in yeast, the domain comes from the species named
Settings: Homo sapiens
E57G showed an abundance fitness of -0.623 ± 0.084.
Variant V55R has an abundance fitness of 0.225 ± 0.036.
Work on S60H yielded an abundance fitness of 0.137 ± 0.095.
V78I showed an abundance fitness of -0.139 ± 0.067.
Work on V55S yielded an abundance fitness of -0.148 ± 0.054.
In the case of Q37W, the abundance fitness is reported as -0.483 ± 0.075.
For Q12V, the abundance fitness was -0.012 ± 0.064.
K65M gave an abundance fitness of -0.264 ± 0.12.
G53F gave an abundance fitness of -0.362 ± 0.12.
C68P showed an abundance fitness of -0.759 ± 0.21.
For C68W, the abundance fitness was -0.793 ± 0.23.
For L22M, the abundance fitness was -0.017 ± 0.073.
With A30F the abundance fitness was -0.858 ± 0.21.
A30G showed an abundance fitness of -0.045 ± 0.046.
Work on L77D yielded an abundance fitness of -0.471 ± 0.1.
C68H gave an abundance fitness of 0.143 ± 0.069.
For E25A, the abundance fitness was -0.252 ± 0.07.
I5D gave an abundance fitness of -0.973 ± 0.18.
With L29E the abundance fitness was -0.782 ± 0.11.
Work on F52T yielded an abundance fitness of 0.183 ± 0.048.
A64Q gave an abundance fitness of -0.001 ± 0.075.
With T14R the abundance fitness was 0.096 ± 0.048.
In the case of V18W, the abundance fitness is reported as -0.643 ± 0.095.
Work on V74H yielded an abundance fitness of -0.249 ± 0.083.
With E57Y the abundance fitness was -0.222 ± 0.13.
In the case of G11C, the abundance fitness is reported as -0.333 ± 0.1.
Work on T28W yielded an abundance fitness of -0.851 ± 0.12.
In the case of V27Q, the abundance fitness is reported as -0.831 ± 0.18.
With M48H the abundance fitness was 0.056 ± 0.093.
C68D showed an abundance fitness of -0.624 ± 0.13.
D61T gave an abundance fitness of -0.985 ± 0.18.
S79I gave an abundance fitness of -0.652 ± 0.27.
S40L gave an abundance fitness of -0.258 ± 0.059.
In the case of P67D, the abundance fitness is reported as -0.623 ± 0.15.
With L77P the abundance fitness was -0.929 ± 0.28.
With S47G the abundance fitness was -0.336 ± 0.054.
With E2W the abundance fitness was -0.121 ± 0.076.
With Y41W the abundance fitness was -0.331 ± 0.066.
E58M showed an abundance fitness of -0.476 ± 0.092.
With S75I the abundance fitness was -0.459 ± 0.089.
I59A showed an abundance fitness of -0.419 ± 0.067.
For D50K, the abundance fitness was 0.131 ± 0.083.
Variant Q12W has an abundance fitness of -0.612 ± 0.14.
F44C showed an abundance fitness of -0.689 ± 0.15.
G34N gave an abundance fitness of 0.291 ± 0.092.
Variant V74D has an abundance fitness of -0.593 ± 0.12.
In the case of G53A, the abundance fitness is reported as 0.096 ± 0.042.
N63Q showed an abundance fitness of -0.113 ± 0.069.
S79W showed an abundance fitness of -0.71 ± 0.11.
Work on P39D yielded an abundance fitness of 0.357 ± 0.088.
For G11N, the abundance fitness was 0.095 ± 0.082.
With F45D the abundance fitness was -0.775 ± 0.17.
For V18D, the abundance fitness was -0.694 ± 0.15.
With H8N the abundance fitness was -0.661 ± 0.17.
For Q12T, the abundance fitness was -0.106 ± 0.075.
P21I showed an abundance fitness of -0.561 ± 0.17.
Variant G53M has an abundance fitness of -0.032 ± 0.069.
With N63V the abundance fitness was -0.59 ± 0.075.
In the case of V18G, the abundance fitness is reported as -0.612 ± 0.059.
Variant C68N has an abundance fitness of -0.117 ± 0.073.
Work on P23R yielded an abundance fitness of -0.625 ± 0.069.
Variant G71W has an abundance fitness of -0.524 ± 0.21.
Variant T3F has an abundance fitness of -0.452 ± 0.14.
Variant F44R has an abundance fitness of -0.753 ± 0.079.
Variant G11D has an abundance fitness of 0.192 ± 0.061.
G11I showed an abundance fitness of -1.06 ± 0.31.
With H8T the abundance fitness was -0.503 ± 0.1.
Variant D31H has an abundance fitness of 0.282 ± 0.089.
With V73M the abundance fitness was -0.767 ± 0.26.
With F52V the abundance fitness was 0.048 ± 0.061.
In the case of D31Q, the abundance fitness is reported as -0.634 ± 0.17.
With G11A the abundance fitness was -0.356 ± 0.064.
For L22Q, the abundance fitness was -0.429 ± 0.1.
With K33Q the abundance fitness was -0.94 ± 0.21.
Y7T showed an abundance fitness of -0.731 ± 0.12.
With N70P the abundance fitness was -0.628 ± 0.14.
In the case of R38W, the abundance fitness is reported as -0.099 ± 0.066.
Variant D61C has an abundance fitness of -0.407 ± 0.13.
D50C showed an abundance fitness of -0.263 ± 0.13.
Work on L17N yielded an abundance fitness of -0.482 ± 0.16.
Work on N70Y yielded an abundance fitness of -0.915 ± 0.15.
Variant V35C has an abundance fitness of -0.074 ± 0.099.
In the case of D50S, the abundance fitness is reported as 0.089 ± 0.048.
K33A showed an abundance fitness of -1.08 ± 0.18.
E13W showed an abundance fitness of -0.351 ± 0.11.
Variant T28I has an abundance fitness of -0.578 ± 0.15.
With Y7V the abundance fitness was -0.37 ± 0.064.
P67G gave an abundance fitness of -0.659 ± 0.085.
For V74Q, the abundance fitness was -0.777 ± 0.31.
With K33V the abundance fitness was -0.762 ± 0.11.
S60K showed an abundance fitness of 0.032 ± 0.067.
L17P showed an abundance fitness of -0.907 ± 0.15.
With F32T the abundance fitness was -0.598 ± 0.13.
K19E showed an abundance fitness of -0.034 ± 0.062.
With K65Y the abundance fitness was 0.093 ± 0.11.
In the case of H8E, the abundance fitness is reported as -1.06 ± 0.21.
S47K showed an abundance fitness of 0.324 ± 0.06.
W76N gave an abundance fitness of -0.661 ± 0.27.
Work on P67F yielded an abundance fitness of -0.657 ± 0.19.
Y7R gave an abundance fitness of -0.811 ± 0.086.
K46T showed an abundance fitness of -0.392 ± 0.089.
Work on G71Q yielded an abundance fitness of -0.763 ± 0.38.
Work on I5F yielded an abundance fitness of -0.815 ± 0.17.
For F69Y, the abundance fitness was 0.061 ± 0.076.
With E25T the abundance fitness was -0.356 ± 0.12.
For E13C, the abundance fitness was -0.251 ± 0.081.
For P21R, the abundance fitness was -0.575 ± 0.066.
Work on D62N yielded an abundance fitness of -0.307 ± 0.14.
In the case of E13V, the abundance fitness is reported as -0.426 ± 0.082.
In the case of N70L, the abundance fitness is reported as -0.757 ± 0.13.
Variant I6C has an abundance fitness of -0.467 ± 0.1.
Variant P67V has an abundance fitness of -0.728 ± 0.097.
For V74P, the abundance fitness was -0.981 ± 0.27.
D51A showed an abundance fitness of 0.022 ± 0.07.
In the case of R38L, the abundance fitness is reported as -0.114 ± 0.056.
Work on E58L yielded an abundance fitness of -0.492 ± 0.069.
H8C showed an abundance fitness of -1.19 ± 0.3.
I59P gave an abundance fitness of -0.777 ± 0.11.
With D49L the abundance fitness was -0.564 ± 0.076.
In the case of I59V, the abundance fitness is reported as -0.395 ± 0.064.
In the case of K42Q, the abundance fitness is reported as -0.044 ± 0.083.
A30M gave an abundance fitness of -0.479 ± 0.1.
Variant Y41R has an abundance fitness of -0.741 ± 0.069.
With L20P the abundance fitness was -0.954 ± 0.18.
For L29K, the abundance fitness was -0.917 ± 0.14.
P67Q showed an abundance fitness of -0.676 ± 0.21.
For T14H, the abundance fitness was 0.281 ± 0.12.
Work on S79E yielded an abundance fitness of 0.002 ± 0.056.
Variant M48V has an abundance fitness of 0.125 ± 0.048.
With L20A the abundance fitness was -1.06 ± 0.14.
Variant L36V has an abundance fitness of -0.187 ± 0.062.
Work on V54P yielded an abundance fitness of 0.069 ± 0.067.
In the case of K33S, the abundance fitness is reported as -0.527 ± 0.091.
I6G showed an abundance fitness of -0.625 ± 0.057.
Work on R26H yielded an abundance fitness of -0.182 ± 0.12.
R26D gave an abundance fitness of -0.027 ± 0.091.
Variant F69A has an abundance fitness of -0.613 ± 0.12.
Variant K33G has an abundance fitness of -0.704 ± 0.078.
D50L showed an abundance fitness of -0.475 ± 0.069.
With S47F the abundance fitness was 0.011 ± 0.084.
L9G gave an abundance fitness of -0.622 ± 0.063.
Variant D31P has an abundance fitness of -0.35 ± 0.12.
For K19W, the abundance fitness was -0.357 ± 0.073.
With L66P the abundance fitness was -0.588 ± 0.098.
For G53K, the abundance fitness was 0.482 ± 0.052.
In the case of D51K, the abundance fitness is reported as 0.197 ± 0.079.
With L36R the abundance fitness was -0.528 ± 0.067.
Work on I6Y yielded an abundance fitness of 0.248 ± 0.07.
S47N showed an abundance fitness of 0.092 ± 0.11.
Variant V55A has an abundance fitness of -0.212 ± 0.058.
Work on H8M yielded an abundance fitness of -0.455 ± 0.11.
D50G gave an abundance fitness of 0.069 ± 0.07.
With E58A the abundance fitness was -0.647 ± 0.097.
V35D showed an abundance fitness of -0.892 ± 0.21.
Variant L20Q has an abundance fitness of -1.09 ± 0.24.
In the case of K56E, the abundance fitness is reported as -0.431 ± 0.079.
In the case of F45A, the abundance fitness is reported as -0.533 ± 0.064.
L9I gave an abundance fitness of 0.163 ± 0.072.
With L29S the abundance fitness was -0.498 ± 0.078.
I6V showed an abundance fitness of -0.135 ± 0.05.
K33W showed an abundance fitness of -0.52 ± 0.091.
T3C gave an abundance fitness of -0.59 ± 0.12.
N70T gave an abundance fitness of -0.466 ± 0.11.
Variant A24I has an abundance fitness of -0.431 ± 0.18.
Work on Y16W yielded an abundance fitness of -0.572 ± 0.12.
Y41D gave an abundance fitness of -0.673 ± 0.13.
Variant K65E has an abundance fitness of -0.821 ± 0.14.
